Reference: patent publication US20060069024A1 (PURDUE RESEARCH FOUNDATION, published 2006)

What was measured:
[1] = molecular target: T1, PHO36 (endogenous, wild-type strain BWG7a) (Saccharomyces cerevisiae, UniProt Q12442 1-317); test: cell-based or functional assay
T1 sequence (looked up): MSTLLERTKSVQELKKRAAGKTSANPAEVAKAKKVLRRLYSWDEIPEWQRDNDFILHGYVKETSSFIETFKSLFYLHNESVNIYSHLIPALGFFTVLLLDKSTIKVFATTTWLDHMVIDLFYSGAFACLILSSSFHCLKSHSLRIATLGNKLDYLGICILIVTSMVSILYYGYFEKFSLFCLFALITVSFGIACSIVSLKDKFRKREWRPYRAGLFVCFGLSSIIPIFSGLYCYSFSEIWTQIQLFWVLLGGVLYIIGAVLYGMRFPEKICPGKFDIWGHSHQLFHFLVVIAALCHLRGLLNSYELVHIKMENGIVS

[2] = molecular target: T2, PHO36t (product of the truncated PHO36 cDNA isolated in the screen) (Saccharomyces cerevisiae, UniProt Q12442 116-317, limits assumed); test: cell-based or functional assay
T2 sequence (looked up): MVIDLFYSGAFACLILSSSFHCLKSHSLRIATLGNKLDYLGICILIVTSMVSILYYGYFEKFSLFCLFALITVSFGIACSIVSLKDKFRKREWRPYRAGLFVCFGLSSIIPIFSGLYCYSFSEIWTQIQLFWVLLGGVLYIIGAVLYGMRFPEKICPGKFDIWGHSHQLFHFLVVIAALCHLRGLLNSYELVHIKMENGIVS

[3] = molecular target: T3, STE7-Myc fusion protein (Saccharomyces cerevisiae, UniProt P06784 1-515, limits assumed); test: pull-down with osmotin-Sepharose 4B, anti-myc (myc1-9E10) immunoblot
T3 construct: Used as a cell extract of BWG7a expressing the fusion, as a control for the c-myc tag; also called c-myc tagged STE7; pNC267 product; not shown: Myc tag
T3 sequence (looked up): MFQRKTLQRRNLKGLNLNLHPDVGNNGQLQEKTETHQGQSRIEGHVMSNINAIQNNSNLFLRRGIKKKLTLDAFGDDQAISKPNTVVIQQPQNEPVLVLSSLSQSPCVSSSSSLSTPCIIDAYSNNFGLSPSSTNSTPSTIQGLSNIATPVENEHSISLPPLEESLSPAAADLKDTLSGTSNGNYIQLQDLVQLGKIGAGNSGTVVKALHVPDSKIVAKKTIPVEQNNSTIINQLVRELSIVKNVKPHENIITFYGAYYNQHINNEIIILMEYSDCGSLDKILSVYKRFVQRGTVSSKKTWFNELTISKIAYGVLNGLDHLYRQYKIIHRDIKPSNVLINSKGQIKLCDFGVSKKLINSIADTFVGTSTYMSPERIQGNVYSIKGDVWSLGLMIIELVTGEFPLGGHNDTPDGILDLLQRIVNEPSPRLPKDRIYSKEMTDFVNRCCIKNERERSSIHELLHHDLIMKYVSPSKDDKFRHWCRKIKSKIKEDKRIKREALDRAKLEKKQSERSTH
Description: FIG. 4: PHO36 Interacts Specifically with Osmotin In Vitro and In Vivo. A. Osmotin-Sepharose 4B was incubated with cell extract of the strain BWG7a expressing the fusion protein STE7-Myc (lane 1), total membrane fraction purified from the strain ΔPHO36 (lane 2) or total membrane fraction purified from the strain BWG7a expressing c-myc tagged PHO36 from the plasmid pPHO36MH (lanes 3-8) in the absence (lanes 1, 2, and 5) or presence of the competitor proteins A9 (100 μg, lane 3; or 10 μg, lane 7), osmotin (Osm; 100 μg, lane 4; or 10 μg, lane 6), or BSA (100 μg, lane 8). After extensive washing, bound proteins were dissociated, separated by SDS-PAGE and the c-Myc tag was immunodetected with mycl-9E10 antibodies. B. Spheroplasts (10⁹ml⁻¹) derived from the Δpho36 mutant (Δpho36), and the wild-type strain BWG7a carrying the plasmid pPHO36MH (pPHO36) were incubated with ³⁵S-osmotin (0.4 μM, 0.16 μCi) for 1 hr, without (none) or with a 10-fold molar excess of A9, BSA, or osmotin as competitors. After extensive washing, ³⁵S-osmotin retained on spheroplasts was counted.
Protein interaction assays in solution. Osmotin was coupled to CNBr-activated Sepharose 4B (Pharmacia Biotech) according to the manufacturer's instructions. […]

[4] = molecular target: T4, PHO36MH (PHO36 with c-myc epitope and hexa-His tag fused in-frame at the C-terminus) (Saccharomyces cerevisiae, UniProt Q12442 1-317); test: 35S-osmotin binding to yeast spheroplasts, scintillation counting, non-specific binding subtracted
T4 construct: whole, on cells; Overexpressed in BWG7a from the multicopy plasmid pPHO36MH; It was used as a detergent-solubilised total membrane fraction in the pull-down and on spheroplasts in the 35S-osmotin assay; Bands of about 36 and 72 kDa were read as monomers and dimers; also called c-myc tagged PHO36; recombinant PHO36MH; not shown: c-myc tag; hexa-His tag
T4 sequence (looked up): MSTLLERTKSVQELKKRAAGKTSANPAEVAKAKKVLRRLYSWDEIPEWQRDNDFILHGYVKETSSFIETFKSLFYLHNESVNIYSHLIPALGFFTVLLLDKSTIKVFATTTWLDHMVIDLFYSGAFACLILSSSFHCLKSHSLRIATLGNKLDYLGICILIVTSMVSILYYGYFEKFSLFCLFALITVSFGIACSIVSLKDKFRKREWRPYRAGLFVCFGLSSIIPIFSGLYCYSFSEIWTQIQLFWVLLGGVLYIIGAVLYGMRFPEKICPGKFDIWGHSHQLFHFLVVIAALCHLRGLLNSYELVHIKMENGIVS
Description: After extensive washing, bound proteins were dissociated, separated by SDS-PAGE and the c-Myc tag was immunodetected with mycl-9E10 antibodies. B. Spheroplasts (10⁹ml⁻¹) derived from the Δpho36 mutant (Δpho36), and the wild-type strain BWG7a carrying the plasmid pPHO36MH (pPHO36) were incubated with ³⁵S-osmotin (0.4 μM, 0.16 μCi) for 1 hr, without (none) or with a 10-fold molar excess of A9, BSA, or osmotin as competitors. After extensive washing, ³⁵S-osmotin retained on spheroplasts was counted.
³⁵S-Osmotin Binding Assay. Osmotin was radiolabeled to a specific-activity of 12 Ci mmol⁻¹ using the ³⁵SLR reagent (Amersham), according to manufacturer's instructions. Yeast cells were grown YPD medium until A₆₀₀ₙₘ 0.6 and then harvested by centrifugation. The pellet was resuspended in 1M sorbitol (A₆₀₀ₙₘ 6) and treated with lyticase (100 U ml⁻¹). After digestion of the cell wall was completed, spheroplasts were collected by centrifugation, washed twice with 1M sorbitol and resuspended in 1M sorbitol (10⁹ml⁻¹). The binding reaction was initiated by the addition of 2 μl of 35S-osmotin (1 μCi, 3 μg) to 300 μl of spheroplasts (0.3×10⁹). […] Spheroplasts were collected by centrifugation, washed twice, resuspended 1M sorbitol (50 μl) and counted in a liquid scintillation counter in 5 ml of EcoLume™ (ICN Biomedicals). […]

- IC50 for osmotin of the wild type strain (compared with the PHO36 disruptant) [1]: 600 nM
- fold change of IC50 for osmotin, cells overexpressing PHO36t against control cells with the empty vector [2]: 3 fold
- binding result [3]: no binding
- fold 35S-osmotin bound, spheroplasts of the PHO36MH-overexpressing strain against the wild-type strain with empty vector [4]: ~3 times
B1: osmotin (ligand)
chain: ATIEVRNNCPYTVWAASTPIGGGRRLDRGQTWVINAPRGTKMARVWGRTNCNFNAAGRGTCQTGDCGGVLQCTGWGKPPNTLAEYALDQFSGLDFWDISLVDGFNIPMTFAPTNPSGGKCHAIHCTANINGECPRELRVPGGCNNPCTTFGGQQYCCTQGPCGPTFFSKFFKQRCPDAYSYPQDDPTSTFTCPGGSTNYRVIFCPNGQAHPNFPLEMPGSDEVAK
notes: Purified osmotin (26 kDa globular protein, mostly a monomer in solution); also called tobacco PR-5 protein; 35S-osmotin
- IC50 for osmotin of control cells transformed with the empty vector (viable counts after one hour of osmotin treatment, galactose medium) [1]: 600 nM
- IC50 for osmotin of cells overexpressing PHO36t (viable counts after one hour of osmotin treatment, galactose medium) [2]: 200 nM
